Drawing on US20200299415A1, this text covers Kd and Bmax (fmol/mg protein) for one substance.

The target in experiment [1] is cell surface receptors in membranes prepared from SH-SY5Y cells. The experiment in a line: radioligand saturation binding on SH-SY5Y cell membranes, filtration, nonlinear regression; upper end of printed range.
For experiment [2] the target is unchanged. The experiment in a line: radioligand saturation binding on SH-SY5Y cell membranes; lower end of range.
For experiment [3] the target is unchanged. Put plainly: radioligand saturation binding on SH-SY5Y cell membranes; upper end of printed range.
For experiment [4] the target is unchanged. Put plainly: radioligand saturation binding on SH-SY5Y cell membranes, filtration, nonlinear regression; lower end of range.

Regarding “[3H][Dmt1]DALDA (2',6'-Dmt-D-Arg-Phe-Lys-NH2, tritiated) (peptide)”, the Kd in experiment [1] was found to be 0.149 nM; in experiment [4] it was 0.087 nM. Also, the results for the Bmax (fmol/mg protein) in experiment [2] and in experiment [3] were 88 and 104, respectively.
